For test [1], the target named is porcine aminopeptidase N (pAPN) ectodomain, residues 58-961, wild type (pig) (UniProt P15145). Kind of test: SPR; […], room temperature; […] (0.01 M HEPES, 0.15 M NaCl, 0.5% surfactant P20, 3 mM EDTA, pH 7.4); […]. (In general: Surface plasmon resonance follows binding to a sensor surface in real time, without labels.)
For test [2], the target named is human aminopeptidase N (hAPN) ectodomain, residues 62-963, wild type (UniProt P15144). The test is described as above.
human aminopeptidase N (hAPN) ectodomain, residues 62-963, wild type, sequence (P15144 62-963): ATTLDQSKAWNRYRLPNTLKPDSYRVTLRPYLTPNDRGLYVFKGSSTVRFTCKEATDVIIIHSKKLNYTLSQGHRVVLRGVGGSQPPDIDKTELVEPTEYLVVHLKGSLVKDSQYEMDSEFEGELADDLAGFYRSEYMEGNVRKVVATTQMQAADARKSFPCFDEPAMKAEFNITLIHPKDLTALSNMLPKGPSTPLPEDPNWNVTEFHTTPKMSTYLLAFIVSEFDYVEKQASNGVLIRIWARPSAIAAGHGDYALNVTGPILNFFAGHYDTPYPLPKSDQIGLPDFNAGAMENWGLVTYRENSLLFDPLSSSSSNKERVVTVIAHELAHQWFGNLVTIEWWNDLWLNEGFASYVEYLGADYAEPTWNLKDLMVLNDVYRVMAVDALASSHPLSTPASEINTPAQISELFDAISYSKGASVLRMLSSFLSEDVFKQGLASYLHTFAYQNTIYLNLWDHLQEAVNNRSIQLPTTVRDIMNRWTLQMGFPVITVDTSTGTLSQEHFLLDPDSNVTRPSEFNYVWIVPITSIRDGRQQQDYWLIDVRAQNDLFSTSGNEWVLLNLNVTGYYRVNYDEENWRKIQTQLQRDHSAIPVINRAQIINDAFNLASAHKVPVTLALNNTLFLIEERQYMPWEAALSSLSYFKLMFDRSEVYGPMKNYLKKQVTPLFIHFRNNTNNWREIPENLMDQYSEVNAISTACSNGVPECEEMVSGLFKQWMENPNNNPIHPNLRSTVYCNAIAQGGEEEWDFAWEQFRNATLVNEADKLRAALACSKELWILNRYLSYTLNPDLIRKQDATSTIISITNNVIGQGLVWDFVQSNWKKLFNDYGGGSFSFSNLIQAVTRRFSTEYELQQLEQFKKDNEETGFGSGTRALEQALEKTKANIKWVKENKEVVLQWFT

porcine aminopeptidase N (pAPN) ectodomain, residues 58-961, wild type (pig), sequence (P15145 58-961): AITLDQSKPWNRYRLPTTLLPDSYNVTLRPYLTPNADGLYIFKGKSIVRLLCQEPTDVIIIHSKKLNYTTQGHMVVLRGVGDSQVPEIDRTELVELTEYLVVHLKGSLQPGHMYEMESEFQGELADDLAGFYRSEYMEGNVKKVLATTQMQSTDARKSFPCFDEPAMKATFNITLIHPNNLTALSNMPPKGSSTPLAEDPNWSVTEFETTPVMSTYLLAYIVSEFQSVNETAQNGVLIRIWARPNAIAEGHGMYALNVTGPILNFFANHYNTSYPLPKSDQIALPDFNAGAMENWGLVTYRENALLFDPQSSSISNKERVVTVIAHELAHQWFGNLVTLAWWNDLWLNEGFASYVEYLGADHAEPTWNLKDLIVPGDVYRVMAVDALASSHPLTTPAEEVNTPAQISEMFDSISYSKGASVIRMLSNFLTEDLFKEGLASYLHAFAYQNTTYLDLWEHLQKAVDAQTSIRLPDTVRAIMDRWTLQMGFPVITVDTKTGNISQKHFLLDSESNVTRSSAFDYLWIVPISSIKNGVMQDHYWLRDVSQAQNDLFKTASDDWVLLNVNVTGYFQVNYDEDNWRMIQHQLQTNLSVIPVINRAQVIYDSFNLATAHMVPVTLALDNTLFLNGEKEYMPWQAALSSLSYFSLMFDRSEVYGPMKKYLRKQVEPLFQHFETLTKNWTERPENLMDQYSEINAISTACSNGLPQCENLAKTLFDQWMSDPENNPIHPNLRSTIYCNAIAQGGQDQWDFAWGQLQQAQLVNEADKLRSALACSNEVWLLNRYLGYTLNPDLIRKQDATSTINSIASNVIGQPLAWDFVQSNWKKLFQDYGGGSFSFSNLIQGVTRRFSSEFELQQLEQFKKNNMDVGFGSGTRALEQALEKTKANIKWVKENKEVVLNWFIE

“PDCoV RBD with mutation of residues F318, E320, R322, R357, and Y398”: the fold decrease in affinity against wild-type PDCoV RBD in test [1] and in test [2] was 5 to 150 fold in each case.

The values above are taken from PMC8933513 (2022).
